Sequences and labels used below:
B1: huC2C1A1A1-V4 (antibody, human IgG4 S228P, kappa, V domains shown)
VH: EVQLVESGGGLVQPGGSLRLSCAASGFTFSTYGMSWVRQAPGKGLVWVSTINSNGGSTSYPDSVKGRFTISRDNAKNTLYLQMNSLRAEDTAVYYCARFFRFRNAMDYWGQGTLVTVSS
VL: DIQMTQSPSSLSASVGDRVTITCRTSENIYSYLAWYQQKPGKAPKFLIYNAKTLAEGVPSRFSGSGSGTDFTLTISSLQPEDFATYYCQHYYGPPTWTFGQGTKVEIKR
notes: Humanized, human IgG4/kappa
B2: huC2C1A1A1-V3 (antibody, human IgG4, V domains shown)
VH: EVQLVESGGGLVQPGGSLRLSCAASGFTFSTYGMSWVRQAPGKGLVWVSTINSNGGSTSYPDSVKGRFTISRDNAKNTLYLQMNSLRAEDTAVYYCARFFRFRNAMDYWGQGTLVTVSS
VL: DIQMTQSPSSLSASVGDRVTITCRTSENIYSYLAWYQQKPGKAPKFLVYNAKTLAEGVPSRFSGSGSGTDFTLTISSLQPEDFATYYCQHYYGPPTWTFGQGTKVEIKR
notes: Humanized, human IgG4/kappa
B3: huC2C1A1A1-V2 (antibody, human IgG4 S228P, kappa, V domains shown)
VH: EVQLVESGGGLVQPGGSLRLSCAASGFTFSTYGMSWVRQAPGKGLVWVSTINSNGGSTSYPDSVKGRFTISRDNAKNTLYLQMNSLRAEDTAVYYCARFFRFRNAMDYWGQGTLVTVSS
VL: DIQMTQSPSSLSASVGQRVTITCRTSENIYSYLAWYQQKQGKPPRFLIYNAKTLAEGVPSRFSGSGSGTEFTLTITSLQAEDFGVYYCQHYYGPPTWTFGPGTKLEIKR
notes: Humanized, human IgG4/kappa
B4: huC2C1A1A1-V5 (antibody, human IgG4 S228P, kappa, V domains shown)
VH: EVQLVESGGGLVQPGGSLRLSCAASGFTFSTYGMSWVRQSPDKRLEWVSTINSNGGSTSYPDSVKGRFTISRDNAKNTLYLQMRSLRAEDTAVYYCARFFRFRNAMDYWGQGTLVTVSS
VL: DIQMTQSPSSLSASVGDRVTITCRTSENIYSYLAWYQQKPGKAPKLLIYNAKTLAEGVPSRFSGSGSGTDFTLTISSLQPEDFATYYCQHYYGPPTWTFGQGTKVEIKR
notes: Humanized, human IgG4/kappa
B5: huC2C1A1A1-V7 (antibody, human IgG4, V domains shown)
VH: EVQLVESGGGLVQPGGSLRLSCAASGFTFSTYGMSWVRQSPDKRLEWVSTINSNGGSTSYPDSVKGRFTISRDNAKNTLYLQMRSLRAEDTAVYYCARFFRFRNAMDYWGQGTLVTVSS
VL: DIQMTQSPSSLSASVGDRVTITCRTSENIYSYLAWYQQKPGKAPKFLVYNAKTLAEGVPSRFSGSGSGTDFTLTISSLQPEDFATYYCQHYYGPPTWTFGQGTKVEIKR
notes: Humanized, human IgG4/kappa
B6: huC2C1A1A1-V1 (antibody, human IgG4 S228P, kappa, V domains shown)
VH: EVQLVESGGGLVQPGGSLRLSCAASGFTFSTYGMSWVRQAPGKGLVWVSTINSNGGSTSYPDSVKGRFTISRDNAKNTLYLQMNSLRAEDTAVYYCARFFRFRNAMDYWGQGTLVTVSS
VL: DIQMTQSPSSLSASVGDRVTITCRTSENIYSYLAWYQQKPGKAPKLLIYNAKTLAEGVPSRFSGSGSGTDFTLTISSLQPEDFATYYCQHYYGPPTWTFGQGTKVEIKR
notes: Humanized, human IgG4/kappa

This test concerns the target T1, recombinant human IL4Rα-his protein (in house made) (human, UniProt P24394 26-232, limits assumed).
T1 construct: also called Human IL4Ra-his
Briefly: SPR (Biacore), antibody captured, IL4Rα-his flowed. (Surface plasmon resonance follows binding to a sensor surface in real time, without labels.)
The term Kd denotes the equilibrium constant for the complex coming apart. As usually defined, the koff is a measure of how fast the partners let go of each other. What is called kon is the second-order rate constant of association. B1: the Dissociation % was 0.2%, the “End (RU)” value was found to be 49.6 RU, the Kd was less than 0.022 nM and the “Start (RU)” value is 49.5 RU. Further, the koff is less than 1e-05 s⁻¹ and the kon came out at 455000 M⁻¹ s⁻¹.
Take B2: the Dissociation % is -0.62%, the “End (RU)” value was determined as 48.3 RU, the Kd was less than 0.0389 nM and the “Start (RU)” value was 48.6 RU. The koff was less than 1e-05 s⁻¹ and the association rate constant (kon) worked out at 257000 M⁻¹ s⁻¹.
As for B3, the Dissociation % was -0.2%, the “End (RU)” value was 50.3 RU, the Kd was less than 0.0442 nM and the “Start (RU)” value was found to be 50.4 RU. Further, the koff is less than 1e-05 s⁻¹ and the kon worked out at 226000 M⁻¹ s⁻¹.
Regarding B4, the Dissociation % was -2.28%, the “End (RU)” value is 64.3 RU, the equilibrium dissociation constant (Kd) amounted to 0.0283 nM and the “Start (RU)” value worked out at 65.8 RU. The dissociation rate constant (koff) amounted to 7.5e-05 s⁻¹ and the kon came to 2.65e+06 M⁻¹ s⁻¹.
Consider B5, for which the Dissociation % was -0.66%, the “End (RU)” value stood at 60.1 RU, the Kd was less than 0.038 nM and the “Start (RU)” value was found to be 60.5 RU. Besides, the koff was less than 1e-05 s⁻¹ and the kon was 263000 M⁻¹ s⁻¹.
Take B6: the Dissociation % amounted to 0.23%, the “End (RU)” value was 44 RU, the Kd is less than 0.0773 nM and the “Start (RU)” value was found to be 43.9 RU. Moreover, the koff is less than 1e-05 s⁻¹ and the kon worked out at 129000 M⁻¹ s⁻¹.

Values taken from patent publication US20230105029A1 (CHIA TAI TIANQING PHARMACEUTICAL GROUP, published 2023).
